Results on eight sequences are retold here after the supplement of paper PMC5998384.

In series [1] the test system is HeLa Kyoto. Nature of the series: melting temperature (median over replicates), in situ; higher = more thermally stable.
Series [2] deals with HeLa Kyoto. Nature of the series: solubility in G1/S (NP-40 vs SDS abundance) (log2 ratio); higher = more soluble. To be noted: cell cycle stage: G1/S.
Series [3] relates to HeLa Kyoto. Put plainly: solubility change mitosis vs G1/S (difference of NP-40 vs SDS log2 ratios) (log2 ratio difference); higher = more soluble in mitosis.
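Throughout, for melting temperature (median over replicates), in situ: HeLa Kyoto cells synchronized by double thymidine or nocodazole block, proteins quantified by TMT10plex mass spectrometry, three independent biological replicates.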
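Throughout, for solubility change mitosis vs G1/S (difference of NP-40 vs SDS log2 ratios): synchronized HeLa Kyoto cells (double thymidine block for G1/S, nocodazole release for mitosis), protein amounts in NP-40 versus SDS lysates quantified by mass spectrometry, three biological replicates.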
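Throughout, for solubility in G1/S (NP-40 vs SDS abundance): HeLa Kyoto cells arrested at G1/S by double thymidine block, proteins quantified by TMT10plex mass spectrometry in mild NP-40 versus SDS extracts, three biological replicates.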

For the sequence “MELHILEHRLQVASVAKESIPLFTYGLIKLAFLSSKTRCKFFSLTETPEDYTIIVDEEGFLELPSSEHLSVADATWLALNVVSGGGSFSSSQPIGVTKIAKSVIAPLADQNISVFMLSTYQTDFILVRERDLPFVTHTLSSEFTILRVVNGETVAAENLGITNGFVKPKLVQRPVIHPLSSPSNRFCVTSLDPDTLPAVATLLMDVMFYSNGVKDPMATGDDCGHIRFFSFSLIEGYISLVMDVQTQQRFPSNLLFTSASGELWKMVRIGGQPLGFDECGIVAQISEPLAAADIPAYYISTFKFDHALVPEENINGVISALKVSQAEKH [GATSL2]”, the melting temperature amounted to 56.4 °C in the series with HeLa Kyoto [1] (cell cycle stage: G1/S) and 57.8 °C with HeLa Kyoto [1] (cell cycle stage: mitosis). Also, in the series on HeLa Kyoto [2], the “solubility in G1/S (log2)” value was determined as 0.084. Moreover, the “solubility change mitosis (log2)” value in the series with HeLa Kyoto [3] is -0.149.

For “MELIQDTSRPPLEYVKGVPLIKYFAEALGPLQSFQARPDDLLINTYPKSGTTWVSQILDMIYQGGDLEKCNRAPIYVRVPFLEVNDPGEPSGLETLKDTPPPRLIKSHLPLALLPQTLLDQKVKVVYVARNPKDVAVSYYHFHRMEKAHPEPGTWDSFLEKFMAGEVSYGSWYQHVQEWWELSRTHPVLYLFYEDMKENPKREIQKILEFVGRSLPEETMDFMVQHTSFKEMKKNPMTNYTTVPQELMDHSISPFMRKGMAGDWKTTFTVAQNERFDADYAEKMAGCSLSFRSEL [SULT1A3]”, the melting temperature amounted to 48.5 °C in the series with HeLa Kyoto [1] (cell cycle stage: G1/S) and 49.2 °C with HeLa Kyoto [1] (cell cycle stage: mitosis). The “solubility in G1/S (log2)” value in the series with HeLa Kyoto [2] came out at 0.432. In addition, the “solubility change mitosis (log2)” value in the series with HeLa Kyoto [3] was -0.174.

As for “MELIQDTSRPPLEYVKGVPLIKYFAEALGPLQSFQARPDDLLISTYPKSGTTWVSQILDMIYQGGDLEKCHRAPIFMRVPFLEFKAPGIPSGMETLKDTPAPRLLKTHLPLALLPQTLLDQKVKVVYVARNAKDVAVSYYHFYHMAKVHPEPGTWDSFLEKFMVGEVSYGSWYQHVQEWWELSRTHPVLYLFYEDMKENPKREIQKILEFVGRSLPEETVDFVVQHTSFKEMKKNPMTNYTTVPQEFMDHSISPFMRKGMAGDWKTTFTVAQNERFDADYAEKMAGCSLSFRSEL [SULT1A1]”, in the series with HeLa Kyoto [1] (cell cycle stage: mitosis), the melting temperature worked out at 49.2 °C. For the same sequence, in the series on HeLa Kyoto [2], the “solubility in G1/S (log2)” value is 0.0556. The “solubility change mitosis (log2)” value in the series with HeLa Kyoto [3] is -0.0949.

“MEPPNLYPVKLYVYDLSKGLARRLSPIMLGKQLEGIWHTSIVVHKDEFFFGSGGISSCPPGGTLLGPPDSVVDVGSTEVTEEIFLEYLSSLGESLFRGEAYNLFEHNCNTFSNEVAQFLTGRKIPSYITDLPSEVLSTPFGQALRPLLDSIQIQPPGGSSVGRPNGQS [DESI1]”: the melting temperature with HeLa Kyoto [1] (cell cycle stage: G1/S) came out at 47.1 °C; with HeLa Kyoto [1] (cell cycle stage: mitosis), 48.4 °C. For the same sequence, the “solubility in G1/S (log2)” value in the series with HeLa Kyoto [2] was 0.341. In the series on HeLa Kyoto [3], the “solubility change mitosis (log2)” value is -0.0645.

For “MEQAPNMAEPRGPVDHGVQIRFITEPVSGAEMGTLRRGGRRPAKDARASTYGVAVRVQGIAGQPFVVLNSGEKGGDSFGVQIKGANDQGASGALSSDLELPENPYSQVKGFPAPSQSSTSDEEPGAYWNGKLLRSHSQASLAGPGPVDPSNRSNSMLELAPKVASPGSTIDTAPLSSVDSLINKFDSQLGGQARGRTGRRTRMLPPEQRKRSKSLDSRLPRDTFEERERQSTNHWTSSTKYDNHVGTSKQPAQSQNLSPLSGFSRSRQTQDWVLQSFEEPRRSAQDPTMLQFKSTPDLLRDQQEAAPPGSVDHMKATIYGILREGSSESETSVRRKVSLVLEKMQPLVMVSSGSTKAVAGQGELTRKVEELQRKLDEEVKKRQKLEPSQVGLERQLEEKTEECSRLQELLERRKGEAQQSNKELQNMKRLLDQGEDLRHGLETQVMELQNKLKHVQGPEPAKEVLLKDLLETRELLEEVLEGKQRVEEQLRLRERELTALKGALKEEVASRDQEVEHVRQQYQRDTEQLRRSMQDATQDHAVLEAERQKMSALVRGLQRELEETSEETGHWQSMFQKNKEDLRATKQELLQLRMEKEEMEEELGEKIEVLQRELEQARASAGDTRQVEVLKKELLRTQEELKELQAERQSQEVAGRHRDRELEKQLAVLRVEADRGRELEEQNLQLQKTLQQLRQDCEEASKAKMVAEAEATVLGQRRAAVETTLRETQEENDEFRRRILGLEQQLKETRGLVDGGEAVEARLRDKLQRLEAEKQQLEEALNASQEEEGSLAAAKRALEARLEEAQRGLARLGQEQQTLNRALEEEGKQREVLRRGKAELEEQKRLLDRTVDRLNKELEKIGEDSKQALQQLQAQLEDYKEKARREVADAQRQAKDWASEAEKTSGGLSRLQDEIQRLRQALQASQAERDTARLDKELLAQRLQGLEQEAENKKRSQDDRARQLKGLEEKVSRLETELDEEKNTVELLTDRVNRGRDQVDQLRTELMQERSARQDLECDKISLERQNKDLKTRLASSEGFQKPSASLSQLESQNQLLQERLQAEEREKTVLQSTNRKLERKVKELSIQIEDERQHVNDQKDQLSLRVKALKRQVDEAEEEIERLDGLRKKAQREVEEQHEVNEQLQARIKSLEKDSWRKASRSAAESALKNEGLSSDEEFDSVYDPSSIASLLTESNLQTSSC [CGN]”, the melting temperature with HeLa Kyoto [1] (cell cycle stage: G1/S) and with HeLa Kyoto [1] (cell cycle stage: mitosis) was 53.6 °C in each case. Besides, the “solubility in G1/S (log2)” value with HeLa Kyoto [2] is -0.601. For the same sequence, the “solubility change mitosis (log2)” value with HeLa Kyoto [3] amounted to 0.648.

As to “MFAKLKKKIAEETAVAQRPGGATRIPRSVSKESVASMGADSGDDFASDGSSSREDLSSQLLRRNEQIRKLEARLSDYAEQVRNLQKIKEKLEIALEKHQDSSMRKFQEQNETFQANRAKMAEGLALALARKDQEWSEKMDQLEKEKNILTAQLQEMKNQSMNLFQRRDEMDELEGFQQQELSKIKHMLLKKEESLGKMEQELEARTRELSRTQEELMNSNQMSSDLSQKLEELQRHYSTLEEQRDHVIASKTGAESKITALEQKEQELQALIQQLSIDLQKVTAETQEKEDVITHLQEKVASLEKRLEQNLSGEEHLQELLKEKTLAEQNLEDTRQQLLAARSSQAKAINTLETRVRELEQTLQASEEQLQQSKGIVAAQETQIQELAAANQESSHVQQQALALEQQFLERTQALEAQIVALERTRAADQTTAEQGMRQLEQENAALKECRNEYERSLQNHQFELKKLKEEWSQREIVSVAMAQALEEVRKQREEFQQQAANLTAIIDEKEQNLREKTEVLLQKEQEILQLERGHNSALLQIHQLQAELEALRTLKAEEAAVVAEQEDLLRLRGPLQAEALSVNESHVTSRAMQDPVFQLPTAGRTPNGEVGAMDLTQLQKEKQDLEQQLLEKNKTIKQMQQRMLELRKTLQKELKIRPDNELFEVREKPGPEMANMAPSVTNNTDLTDAREINFEYLKHVVLKFMSCRESEAFHLIKAVSVLLNFSQEEENMLKETLEYKMSWFGSKPAPKGSIRPSISNPRIPWS [GOLGA1]”, the melting temperature with HeLa Kyoto [1] (cell cycle stage: G1/S) turned out to be 49.5 °C. Moreover, the “solubility in G1/S (log2)” value in the series on HeLa Kyoto [2] came to 0.556. Moreover, the “solubility change mitosis (log2)” value in the series on HeLa Kyoto [3] worked out at 0.0219.

The sequence “MFPRPLTPLAAPNGAEPLGRALRRAPLGRARAGLGGPPLLLPSMLMFAVIVASSGLLLMIERGILAEMKPLPLHPPGREGTAWRGKAPKPGGLSLRAGDADLQVRQDVRNRTLRAVCGQPGMPRDPWDLPVGQRRTLLRHILVSDRYRFLYCYVPKVACSNWKRVMKVLAGVLDSVDVRLKMDHRSDLVFLADLRPEEIRYRLQHYFKFLFVREPLERLLSAYRNKFGEIREYQQRYGAEIVRRYRAGAGPSPAGDDVTFPEFLRYLVDEDPERMNEHWMPVYHLCQPCAVHYDFVGSYERLEADANQVLEWVRAPPHVRFPARQAWYRPASPESLHYHLCSAPRALLQDVLPKYILDFSLFAYPLPNVTKEACQQ [CHST14]” came in with a melting temperature in the series with HeLa Kyoto [1] (cell cycle stage: G1/S) of 51.9 °C. In the series with HeLa Kyoto [2], the “solubility in G1/S (log2)” value was found to be 0.333. Moreover, the “solubility change mitosis (log2)” value in the series with HeLa Kyoto [3] was -0.0549.

“MGDEKDSWKVKTLDEILQEKKRRKEQEEKAEIKRLKNSDDRDSKRDSLEEGELRDHRMEITIRNSPYRREDSMEDRGEEDDSLAIKPPQQMSRKEKAHHRKDEKRKEKRRHRSHSAEGGKHARVKEKEREHERRKRHREEQDKARREWERQKRREMAREHSRRERDRLEQLERKRERERKMREQQKEQREQKERERRAEERRKEREARREVSAHHRTMREDYSDKVKASHWSRSPPRPPRERFELGDGRKPGEARPAPAQKPAQLKEEKMEERDLLSDLQDISDSERKTSSAESSSAESGSGSEEEEEEEEEEEEEGSTSEESEEEEEEEEEEEEETGSNSEEASEQSAEEVSEEEMSEDEERENENHLLVVPESRFDRDSGESEEAEEEVGEGTPQSSALTEGDYVPDSPALSPIELKQELPKYLPALQGCRSVEEFQCLNRIEEGTYGVVYRAKDKKTDEIVALKRLKMEKEKEGFPITSLREINTILKAQHPNIVTVREIVVGSNMDKIYIVMNYVEHDLKSLMETMKQPFLPGEVKTLMIQLLRGVKHLHDNWILHRDLKTSNLLLSHAGILKVGDFGLAREYGSPLKAYTPVVVTLWYRAPELLLGAKEYSTAVDMWSVGCIFGELLTQKPLFPGKSEIDQINKVFKDLGTPSEKIWPGYSELPAVKKMTFSEHPYNNLRKRFGALLSDQGFDLMNKFLTYFPGRRISAEDGLKHEYFRETPLPIDPSMFPTWPAKSEQQRVKRGTSPRPPEGGLGYSQLGDDDLKETGFHLTTTNQGASAAGPGFSLKF [CDC2L1]”: the melting temperature is 46.5 °C in the series with HeLa Kyoto [1] (cell cycle stage: G1/S) and 50.3 °C with HeLa Kyoto [1] (cell cycle stage: mitosis). The “solubility in G1/S (log2)” value in the series with HeLa Kyoto [2] is -0.672. Moreover, in the series with HeLa Kyoto [3], the “solubility change mitosis (log2)” value is 0.114.
